Laboratory results: publication PMC3858840
Like-named read-outs stand apart in the source and are kept apart here. Values belong to the substance of their own block, whether it stands above or below them.

How the values were obtained:
[1] = molecular target: FERM domain of human moesin (residues 1–346) (human) (UniProt P26038); assay: other fluorescence titration
[2] = molecular target: TMR-CLS: TMR-labeled CLS_S329C (transmembrane and cytoplasmic domains of human L-selectin), in liposomes (human); assay: other fluorescence titration
[3] = molecular target: TMR-CLS: TMR-labeled CLS_S329C (transmembrane and cytoplasmic domains of human L-selectin), in liposomes (human); assay: other fluorescence titration; remark: listed apart in the source
[4] = molecular target: TMR-ARR18, ARR18 with the N-terminal residue changed to cysteine and labelled with tetramethylrhodamine-5-maleimide (human); assay: other fluorescence titration
[5] = molecular target: TMR-CLS: TMR-labeled CLS_S329C (transmembrane and cytoplasmic domains of human L-selectin), in liposomes (human); assay: other fluorescence titration; remark: listed apart in the source
[6] = molecular target: TMR-CLS: TMR-labeled CLS_S329C (transmembrane and cytoplasmic domains of human L-selectin), in liposomes (human); assay: other fluorescence titration; remark: listed apart in the source
[7] = molecular target: TMR-CLS: TMR-labeled CLS_S329C (transmembrane and cytoplasmic domains of human L-selectin), in liposomes (human); assay: other fluorescence titration; remark: listed apart in the source
[8] = molecular target: TMR-CLS: TMR-labeled CLS_S329C (transmembrane and cytoplasmic domains of human L-selectin), in liposomes (human); assay: other fluorescence titration; remark: listed apart in the source
[9] = molecular target: moesin-FERM/TMR-CLS complex in 15% POPS/85% POPC liposome (human) (UniProt P26038); assay: other fluorescence titration
[10] = molecular target: L-selectin cytoplasmic peptide cytoplasmic domain (Homo sapiens) (UniProt P14151); conditions: cited from earlier work

Sequence of FERM domain of human moesin (residues 1–346) (P26038 1-346): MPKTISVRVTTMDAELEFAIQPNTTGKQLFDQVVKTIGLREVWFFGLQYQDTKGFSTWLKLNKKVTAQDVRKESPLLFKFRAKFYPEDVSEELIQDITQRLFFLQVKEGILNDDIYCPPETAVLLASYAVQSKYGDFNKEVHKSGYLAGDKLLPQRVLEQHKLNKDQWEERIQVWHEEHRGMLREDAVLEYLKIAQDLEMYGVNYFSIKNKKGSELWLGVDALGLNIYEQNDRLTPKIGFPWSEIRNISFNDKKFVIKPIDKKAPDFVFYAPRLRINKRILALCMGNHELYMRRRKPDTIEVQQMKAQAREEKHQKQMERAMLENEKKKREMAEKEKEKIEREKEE
Sequence of moesin N-terminal fragment 1-296 (P26038 1-296): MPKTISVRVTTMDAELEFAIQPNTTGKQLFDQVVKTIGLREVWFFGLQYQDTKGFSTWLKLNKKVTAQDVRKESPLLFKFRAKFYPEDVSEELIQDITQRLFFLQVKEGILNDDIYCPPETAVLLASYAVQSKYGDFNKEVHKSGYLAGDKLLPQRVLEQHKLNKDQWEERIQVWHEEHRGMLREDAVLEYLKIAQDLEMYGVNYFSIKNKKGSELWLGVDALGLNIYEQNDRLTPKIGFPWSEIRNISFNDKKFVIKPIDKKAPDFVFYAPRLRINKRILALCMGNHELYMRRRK
Sequence of FERM domain of human moesin (residues 1–346) (human) (P26038 1-346): as the sequence (P26038 1-346) above

Kd [1]: 196 nM
Substance: ARR18, cytoplasmic domain peptide of human L-selectin (residues Ala317–Tyr334)

Kd [2]: 70 nM | Kd [3]: 133 nM | Kd [4]: 214 nM | Kd [5]: 302 nM | Kd [6]: 67 nM | Kd [7]: 74 nM | Kd [8]: 96 nM
Substance: FERM domain of human moesin (residues 1–346) (from UniProt P26038 1-346) (domain or fragment)

Kd [9]: 800 nM
Substance: calmodulin (CaM), wild type (from UniProt P0DP23 1-149) (natural protein)

Substance: moesin N-terminal fragment 1-296 (from UniProt P26038)
Kd [10]: 40 nM
